The target in this test is β-amyloid (Aβ) overexpressed in nerve cells (UniProt P05067). Put plainly: Co-IP from N2a cells, relative score.

Take ATKAVCVLKGDGPVQGIINFEQKESNGPVKVWGSIKGLT [Peptide 4 (β 1-3 fragment of SOD1)]: the Binding strength with β-amyloid came to 1.
